This assay addresses EBV DNA polymerase BALF5 catalytic subunit, full-length (Epstein-Barr Virus) (UniProt P03198). In words: cell-based or functional assay.

Where only a bound is given, the exact number is not on record here.

Chain of EBV DNA polymerase BALF5 catalytic subunit, full-length (Epstein-Barr Virus) (P03198 1-1015, tags or fused parts left off): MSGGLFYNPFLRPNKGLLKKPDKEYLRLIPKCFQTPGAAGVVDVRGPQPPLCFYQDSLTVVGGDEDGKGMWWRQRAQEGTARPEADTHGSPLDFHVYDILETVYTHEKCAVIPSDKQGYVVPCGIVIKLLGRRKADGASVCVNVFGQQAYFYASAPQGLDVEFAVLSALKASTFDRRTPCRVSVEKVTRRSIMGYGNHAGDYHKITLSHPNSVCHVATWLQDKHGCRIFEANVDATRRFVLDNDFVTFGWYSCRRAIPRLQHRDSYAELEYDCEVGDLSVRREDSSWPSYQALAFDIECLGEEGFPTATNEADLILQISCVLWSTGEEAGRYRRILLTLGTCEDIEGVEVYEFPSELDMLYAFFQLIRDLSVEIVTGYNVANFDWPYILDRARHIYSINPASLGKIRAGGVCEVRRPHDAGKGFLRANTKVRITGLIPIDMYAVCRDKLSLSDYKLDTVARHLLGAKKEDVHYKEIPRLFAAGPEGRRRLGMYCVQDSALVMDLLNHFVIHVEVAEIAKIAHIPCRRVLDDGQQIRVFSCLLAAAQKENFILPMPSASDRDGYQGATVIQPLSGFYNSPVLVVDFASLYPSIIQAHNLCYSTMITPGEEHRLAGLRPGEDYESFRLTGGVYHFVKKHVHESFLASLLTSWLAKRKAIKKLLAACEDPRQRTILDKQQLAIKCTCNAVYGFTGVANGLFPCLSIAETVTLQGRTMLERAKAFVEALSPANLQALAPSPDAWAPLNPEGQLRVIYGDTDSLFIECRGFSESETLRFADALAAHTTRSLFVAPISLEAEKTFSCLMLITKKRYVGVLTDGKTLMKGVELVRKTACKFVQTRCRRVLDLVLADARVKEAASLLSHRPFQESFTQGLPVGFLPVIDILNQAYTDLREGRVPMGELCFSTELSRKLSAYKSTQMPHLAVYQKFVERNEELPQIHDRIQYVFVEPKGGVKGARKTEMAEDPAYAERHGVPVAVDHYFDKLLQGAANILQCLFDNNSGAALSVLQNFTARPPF

“EBV BMRF1 processivity factor, full-length (from UniProt P03191 1-404)”: the DNA polymerase elongation activity on activated calf thymus DNA at 100 mM ammonium sulfate is greater than 100 fold.

These data come from patent US20150064747A1.
